Literature values in patent publication US20250034272A1, “COMPOSITIONS AND METHODS FOR TREATING SEVERE ASTHMA” (Equillium, Inc., priority 2018, published 2025).

Tested on: Th1/Th17 type T cells
Details: stated as known ability

B1: EQ001: humanized anti-CD6 monoclonal antibody, VH/VK SEQ ID NOS: 1 and 2; itolizumab produced in CHO cells (antibody, V domains shown)
VH: EVQLVESGGGLVKPGGSLKLSCAASGFKFSRYAMSWVRQAPGKRLEWVATISSGGSYIYYPDSVKGRFTISRDNVKNTLYLQMSSLRSEDTAMYYCARRDYDLDYFDSWGQGTLVTVSS
VL: DIQMTQSPSSLSASVGDRVTITCKASRDIRSYLTWYQQKPGKAPKTLIYYATSLADGVPSRFSGSGSGQDYSLTISSLESDDTATYYCLQHGESPFTLGSGTKLEIK
modifications: humanized T1h VH sequence; humanized T1h VL sequence
notes: itolizumab produced in CHO cells
For B1, the “inhibition of activation and migration of Th1/Th17 type T cells” value is listed as “inhibit activation and migration”.
